Like-named read-outs stand apart in the source and are kept apart here. Numbered stars: 1 amine (or outer) side, 2 acyl side, 3 side chain; on linkers, the order of the positions; unused ones are H or OH. Bridge positions count the residues as written; N and C are the ends. Square brackets hold non-standard residues; d marks the D form. Peptide text beside a SMILES is read from it. I, II: the chains in the order shown. * marks the point of attachment. X4 = O=C(O)CN1CCN(CC(=O)O)CC(Cc2ccc(NC(=S)NCCC(=O)N(CCOCCOCCOCCOCCC(=O)[*:1])CCOCCOCCOCCOCCC(=O)[*:2])cc2)N(CC(=O)O)CC1; X3 = CC(C)(C)OC(=O)NCCC(=O)N(CCOCCOCCOCCOCCC(=O)[*:1])CCOCCOCCOCCOCCC(=O)[*:2]; X5 = O=C(CCOCCOCCOCCOCCOCCOCCOCCOCCOCCOCCOCCC(=O)[*:2])[*:1]; Pro(cis-4-Ph) = O=C(O)[C@@H]1C[C@H](c2ccccc2)CN1; Trp(5-F) = N[C@@H](Cc1c[nH]c2ccc(F)cc12)C(=O)O; Pro(trans-4-F) = O=C(O)[C@@H]1C[C@@H](F)CN1; Phe(4-F) = N[C@@H](Cc1ccc(F)cc1)C(=O)O; Phe(4-Me) = Cc1ccc(C[C@H](N)C(=O)O)cc1; Tic = O=C(O)[C@@H]1Cc2ccccc2CN1; Pip = O=C(O)[C@@H]1CCCCN1; Aze = O=C(O)[C@@H]1CCN1; Propionyl = CCC(=O)*
What was measured:
[1] = biological target: human Granzyme B (hGranzyme B) (Homo sapiens, UniProt P10144); experiment: Surface plasmon resonance (SPR) binding kinetics to hGranzyme B
Description: The kinetics of test peptide binding to human Granzyme B (hGranzyme B) was determined by SPR. All experiments were performed at 25° C. using the Biacore 8k+ instrument (Cytiva, Marlborough, MA). The Biacore 8k+ Insight Evaluation Software Version 3.0 was used to fit the data with a 1:1 binding model to determine the association rate constant ka (M^−1s^−1, where “M” ~equals molar and “s” ~equals seconds) and the dissociation rate constant kd (s^−1). These rate constants were used to calculate the equilibrium dissociation constant. KD (M)=kd/ka.
To measure the binding kinetics of peptides of interest, surfaces were prepared by a capture method to a Series S Streptavidin (SA) chip using a 1×HBS-EP+ running buffer (Cytiva). hGranzyme B was diluted to 10 μg/mL in IX HBS-EP+ and flowed over spot 2 of each flow cell on the chip at a flow rate of 10 ul/min for 20 s to achieve a level of capture of ~1100 RU. An unmodified spot 1 of each flow cell was used as a matrix binding control or reference surface. Binding kinetics were measured using single cycle kinetics at 25° C. by injecting 5 concentrations with 3-fold serial dilutions of test peptides from 0.01 μM to 1 μM. Compound dilutions were performed manually in a running buffer containing 1×HBS-EP+(Cytiva), and a final concentration of 2% DMSO. The interaction analyses over hGranzyme B, were performed using a 120 s association time and a 900 s dissociation time. All experiments were conducted at a flow rate of 50 μL/min with a data collection rate of 10 Hz.
Peptide dilution series included 2 zero concentration points (no compound) which were averaged and subtracted from the peptide concentration injection as DMSO control responses. Binding data acquired from the reference surface (matrix binding control) were subtracted from the binding data for hGranzyme B surface on the chip to determine specific binding. Next, the association phase data were solvent corrected to account for any signal fluctuation throughout the experiment due to subtle DMSO concentration differences. Corrected response data were analyzed using the Biacore 8k+ Evaluation Software Version 3.0 according to the manufacturer. SPR data for representative compounds of the disclosure are found in Table 8.

human Granzyme B = biological target: T1, human Granzyme B (human, UniProt P10144 21-247); experiment: SPR, Biacore 8k+, hGranzyme B captured on SA chip, single cycle kinetics, 1:1 model
T1 construct: Captured on a Series S Streptavidin chip for SPR; also called hGranzyme B; GzmB

[2] = 25° C., 1:1 binding model, KD=kd/ka, read-out: Granzyme B SPR Kd

T1 sequence (P10144 21-247 limits assumed): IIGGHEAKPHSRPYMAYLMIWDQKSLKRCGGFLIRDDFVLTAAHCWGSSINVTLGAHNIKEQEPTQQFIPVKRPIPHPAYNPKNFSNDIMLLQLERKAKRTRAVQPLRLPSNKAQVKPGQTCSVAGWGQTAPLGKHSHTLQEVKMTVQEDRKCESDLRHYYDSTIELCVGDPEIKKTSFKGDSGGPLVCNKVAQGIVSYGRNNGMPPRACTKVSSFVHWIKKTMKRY

| Molecule | Kd (human Granzyme B) | other results |
| --- | --- | --- |
| C[C@@H]1NC(=O)[C@H](CO)NC(=O)[C@H](CCC(N)=O)NC(=O)[C@H](CC(=O)O)NC(=O)[C@H](CCC(=O)O)NC(=O)[C@H](Cc2ccccc2)NC(=O)[C@H](CC(N)=O)NC(=O)[C@H](Cc2ccccc2)NC(=O)CSC[C@@H](C(=O)NCC(=O)NCC(=O)N[C@@H](CCCCNC(=O)CCOCCOCCOCCOCCN(CCOCCOCCOCCOCCC(=O)NCCCC[C@H](NC(=O)CNC(=O)CNC(=O)[C@@H]2CSCC(=O)N[C@@H](Cc3ccccc3)C(=O)N[C@@H](CC(N)=O)C(=O)N[C@@H](Cc3ccccc3)C(=O)N[C@@H](CCC(=O)O)C(=O)N[C@@H](CC(=O)O)C(=O)N[C@@H](CCC(N)=O)C(=O)N[C@@H](CO)C(=O)N[C@@H](C)C(=O)N[C@@H](CC(=O)O)C(=O)N[C@@H]([C@@H](C)O)C(=O)N[C@@H](Cc3c[nH]c4ccccc34)C(=O)N[C@@H](CCC(N)=O)C(=O)N3CCC[C@H]3C(=O)N2)C(N)=O)C(=O)CCNC(=O)OC(C)(C)C)C(N)=O)NC(=O)[C@@H]2CCCN2C(=O)[C@H](CCC(N)=O)NC(=O)[C@H](Cc2c[nH]c3ccccc23)NC(=O)[C@H]([C@@H](C)O)NC(=O)[C@H](CC(=O)O)NC1=O [Compound 7a, (*F.N.F.E.D.Q.S.A.D.T.W.Q.P.*C.G.G.K.NH2)-bis(PEG4)-β-Ala(Boc)-(*F.N.F.E.D.Q.S.A.D.T.W.Q.P.*C.G.G.K.NH2)] (I: {CH2CO}-FNFEDQSADTWQPCGGK-NH2 / II: {CH2CO}-FNFEDQSADTWQPCGGK-NH2; linker I:17-II:17 via X3; thioether I:N-I:14, II:N-II:14) | – | Kd [1, 2]: < 0.1 nM |
| C[C@@H]1NC(=O)[C@H](CO)NC(=O)[C@H](CCC(N)=O)NC(=O)[C@H](CC(=O)O)NC(=O)[C@H](CCC(=O)O)NC(=O)[C@H](Cc2ccccc2)NC(=O)[C@H](CC(N)=O)NC(=O)[C@H](Cc2ccccc2)NC(=O)CSC[C@@H](C(=O)NCC(=O)NCC(=O)N[C@H](CCCCNC(=O)CCOCCOCCOCCOCCN(CCOCCOCCOCCOCCC(=O)NCCCC[C@@H](NC(=O)CNC(=O)CNC(=O)[C@@H]2CSCC(=O)N[C@@H](Cc3ccccc3)C(=O)N[C@@H](CC(N)=O)C(=O)N[C@@H](Cc3ccccc3)C(=O)N[C@@H](CCC(=O)O)C(=O)N[C@@H](CC(=O)O)C(=O)N[C@@H](CCC(N)=O)C(=O)N[C@@H](CO)C(=O)N[C@@H](C)C(=O)N[C@@H](CC(=O)O)C(=O)N[C@@H]([C@@H](C)O)C(=O)N[C@@H](Cc3c[nH]c4ccccc34)C(=O)N[C@@H](CCC(N)=O)C(=O)N3CCC[C@H]3C(=O)N2)C(N)=O)C(=O)CCNC(=S)Nc2ccc(CC3CN(CC(=O)O)CCN(CC(=O)O)CCN3CC(=O)O)cc2)C(N)=O)NC(=O)[C@@H]2CCCN2C(=O)[C@H](CCC(N)=O)NC(=O)[C@H](Cc2c[nH]c3ccccc23)NC(=O)[C@H]([C@@H](C)O)NC(=O)[C@H](CC(=O)O)NC1=O (stereo partly drawn) [Compound 8a, (*F.N.F.E.D.Q.S.A.D.T.W.Q.P.*C.G.G.K.NH2)-bis(PEG4)-β-Ala(NOTA-1)-(*F.N.F.E.D.Q.S.A.D.T.W.Q.P.*C.G.G.K.NH2)] (I: {CH2CO}-FNFEDQSADTWQPCGG[dK]-NH2 / II: {CH2CO}-FNFEDQSADTWQPCGG[dK]-NH2; linker I:17-II:17 via X4; thioether I:N-I:14, II:N-II:14) | – | Kd [1]: < 0.1 nM |
| CCC(=O)NCCCC[C@H](NC(=O)CNC(=O)CNC(=O)[C@@H]1CSCC(=O)N[C@@H](Cc2ccccc2)C(=O)N[C@@H](CC(N)=O)C(=O)N[C@@H](Cc2ccccc2)C(=O)N[C@@H](CCC(=O)O)C(=O)N[C@@H](CC(=O)O)C(=O)N[C@@H](CCC(N)=O)C(=O)N[C@@H](CO)C(=O)N2C[C@H](F)C[C@H]2C(=O)N[C@@H](CC(=O)O)C(=O)N[C@@H]([C@@H](C)O)C(=O)N[C@@H](Cc2c[nH]c3ccccc23)C(=O)N[C@@H](CCC(N)=O)C(=O)N2CCC[C@H]2C(=O)N1)C(N)=O [Compound 14a, *F.N.F.E.D.Q.S.Prot4F.D.T.W.Q.P.*C.G.G.K(Prop).NH2] ({CH2CO}-FNFEDQS[Pro(trans-4-F)]DTWQPCGGK(Propionyl)-NH2; thioether N-14) | – | Kd [1, 2]: 5.1 nM |
| CCC(=O)NCCCC[C@H](NC(=O)CNC(=O)CNC(=O)[C@@H]1CSCC(=O)N[C@@H](Cc2ccccc2)C(=O)N[C@@H](CC(N)=O)C(=O)N[C@@H](Cc2ccccc2)C(=O)N[C@@H](CCC(=O)O)C(=O)N[C@@H](CC(=O)O)C(=O)N[C@@H](CCC(N)=O)C(=O)N[C@@H](CO)C(=O)N2CCC[C@H]2C(=O)N[C@@H](CC(=O)O)C(=O)N[C@@H]([C@@H](C)O)C(=O)N[C@@H](Cc2c[nH]c3ccccc23)C(=O)N[C@@H](CCC(N)=O)C(=O)N2CCC[C@H]2C(=O)N1)C(N)=O [Compound 15a, *F.N.F.E.D.Q.S.P.D.T.W.Q.P.*C.G.G.K(Prop).NH2] ({CH2CO}-FNFEDQSPDTWQPCGGK(Propionyl)-NH2; thioether N-14) | – | Kd [1, 2]: 3.7 nM |
| C[C@@H]1NC(=O)[C@H](CO)NC(=O)[C@H](CCC(N)=O)NC(=O)[C@H](CC(=O)O)NC(=O)[C@H](CCC(=O)O)NC(=O)[C@H](Cc2ccccc2)NC(=O)[C@H](CC(N)=O)NC(=O)[C@H](Cc2ccccc2)NC(=O)CSC[C@@H](C(=O)NCC(=O)NCC(=O)N[C@@H](CCCCNC(=O)CCOCCOCCOCCOCCOCCOCCOCCOCCOCCOCCOCCC(=O)NCCCC[C@H](NC(=O)CNC(=O)CNC(=O)[C@@H]2CSCC(=O)N[C@@H](Cc3ccccc3)C(=O)N[C@@H](CC(N)=O)C(=O)N[C@@H](Cc3ccccc3)C(=O)N[C@@H](CCC(=O)O)C(=O)N[C@@H](CC(=O)O)C(=O)N[C@@H](CCC(N)=O)C(=O)N[C@@H](CO)C(=O)N[C@@H](C)C(=O)N[C@@H](CC(=O)O)C(=O)N[C@@H]([C@@H](C)O)C(=O)N[C@@H](Cc3c[nH]c4ccccc34)C(=O)N[C@@H](CCC(N)=O)C(=O)N3CCC[C@H]3C(=O)N2)C(N)=O)C(N)=O)NC(=O)[C@@H]2CCCN2C(=O)[C@H](CCC(N)=O)NC(=O)[C@H](Cc2c[nH]c3ccccc23)NC(=O)[C@H]([C@@H](C)O)NC(=O)[C@H](CC(=O)O)NC1=O [Compound 17a, (*F.N.F.E.D.Q.S.A.D.T.W.Q.P.*C.G.G.K.NH2)-PEG11-(*F.N.F.E.D.Q.S.A.D.T.W.Q.P.*C.G.G.K.NH2)] (I: {CH2CO}-FNFEDQSADTWQPCGGK-NH2 / II: {CH2CO}-FNFEDQSADTWQPCGGK-NH2; linker I:17-II:17 via X5 (inferred); thioether I:N-I:14, II:N-II:14 (inferred)) | – | Kd [1, 2]: < 0.3 nM |
| {CH2CO}-[Phe(4-Me)]NFEDQSPDTWQPCG-NH2 (thioether N-14) [Compound 43a] | 3.1 nM | – |
| {CH2CO}-FNFEDQSPDT[Trp(5-F)]QPCG-NH2 (thioether N-14) [Compound 47a] | 4.1 nM | – |
| {CH2CO}-FNFEDQSPDTWQ[Pro(trans-4-F)]CG-NH2 (thioether N-14) [Compound 49a] | 4.5 nM | – |
| {CH2CO}-FNFEDQSPDTWQ[Pro(cis-4-Ph)]CG-NH2 (thioether N-14) [Compound 50a] | 4.6 nM | – |
| {CH2CO}-[Phe(4-F)]NFEDQSPDTWQPCG-NH2 (thioether N-14; SMILES C[C@@H](O)[C@@H]1NC(=O)[C@H](CC(=O)O)NC(=O)[C@@H]2CCCN2C(=O)[C@H](CO)NC(=O)[C@H](CCC(N)=O)NC(=O)[C@H](CC(=O)O)NC(=O)[C@H](CCC(=O)O)NC(=O)[C@H](Cc2ccccc2)NC(=O)[C@H](CC(N)=O)NC(=O)[C@H](Cc2ccc(F)cc2)NC(=O)CSC[C@@H](C(=O)NCC(N)=O)NC(=O)[C@@H]2CCCN2C(=O)[C@H](CCC(N)=O)NC(=O)[C@H](Cc2c[nH]c3ccccc23)NC1=O) [Compound 54a] | 4.9 nM | – |
| {CH2CO}-FNFEDQS[Tic]DTWQPCG-NH2 (thioether N-14; SMILES C[C@@H](O)[C@@H]1NC(=O)[C@H](CC(=O)O)NC(=O)[C@@H]2Cc3ccccc3CN2C(=O)[C@H](CO)NC(=O)[C@H](CCC(N)=O)NC(=O)[C@H](CC(=O)O)NC(=O)[C@H](CCC(=O)O)NC(=O)[C@H](Cc2ccccc2)NC(=O)[C@H](CC(N)=O)NC(=O)[C@H](Cc2ccccc2)NC(=O)CSC[C@@H](C(=O)NCC(N)=O)NC(=O)[C@@H]2CCCN2C(=O)[C@H](CCC(N)=O)NC(=O)[C@H](Cc2c[nH]c3ccccc23)NC1=O) [Compound 64a] | 8.1 nM | – |
| {CH2CO}-FNFEDQSPDTWQ[Pip]CG-NH2 (thioether N-14, also called 71aa) [Compound 71a] | 19.6 nM | – |
| {CH2CO}-FNFEDQS[Aze]DTWQPCG-NH2 (thioether N-14) [Compound 75a] | 28.3 nM | – |
| {CH2CO}-FNFEDQS[Pip]DTWQPCG-NH2 (thioether N-14) [Compound 76a] | 28.6 nM | – |
